Measurements: paper PMC5443882
Several values for one entry are separate records, joined by “and”; a condition that tells them apart may be missing. Equal values may be shown once.

Tests used:
[1] = molecular target: LHCII, the major light-harvesting pigment-protein complex of Photosystem II (Spinacia oleracea (endogenous in spinach leaves)); test: native gel or EMSA; non-denaturing gel electrophoresis of LHCII from dark-adapted leaves in 0.1% DM under constant illumination from sample loading, each slot at a different light intensity (11-1240 µmol photons m^-2 s^-1); 4 °C
[2] = molecular target: LHCII, the major light-harvesting pigment-protein complex of Photosystem II (Spinacia oleracea (endogenous in spinach leaves)); test: native gel or EMSA; lipid-LHCII samples enriched with exogenously added zeaxanthin, separated by native electrophoresis; dimer bands cut out for spectroscopy
[3] = molecular target: LHCII, the major light-harvesting pigment-protein complex of Photosystem II (Spinacia oleracea (endogenous in spinach leaves)); test: native gel or EMSA; identical experiment with thylakoid membranes from dark-adapted spinach leaves solubilised in 0.1% DM, electrophoresis under illumination of increasing intensity (Fig. S4)
[4] = molecular target: LHCII, the major light-harvesting pigment-protein complex of Photosystem II (Spinacia oleracea (endogenous in spinach leaves)); test: native gel or EMSA; non-denaturing gel electrophoresis of LHCII isolated from dark-adapted spinach leaves, suspended in 0.1% DM; 3% stacking and 8% separating gel, 4 °C, running buffer 96 mM glycine, 12.5 mM Tris, 0.05% LDS
[5] = molecular target: LHCII, the major light-harvesting pigment-protein complex of Photosystem II (Spinacia oleracea (endogenous in spinach leaves)); test: native gel or EMSA; non-denaturing gel electrophoresis of LHCII-HL, isolated from spinach leaves pre-illuminated with 1200 µmol photons m^-2 s^-1, suspended in 0.1% DM; 4 °C, running buffer 96 mM glycine, 12.5 mM Tris, 0.05% LDS
[6] = molecular target: LHCII, the major light-harvesting pigment-protein complex of Photosystem II (Spinacia oleracea (endogenous in spinach leaves)); test: fluorescence correlation spectroscopy; mixture of LHCII trimers and monomers in 0.1% DM, illuminated with blue light of 100 µmol photons m^-2 s^-1 for 30 min, diluted to 3 nM; the form is assigned by its diffusion coefficient against monomer and trimer standards

In the case of “LHCII, the major light-harvesting pigment-protein complex of Photosystem II (natural protein)”, the stoichiometry N [1] is reported as 3 and 2, the stoichiometry N [2] is reported as 2 and the stoichiometry N [3] is reported as 3 and 2. For the same substance, the stoichiometry N [4] was 3, the trimer/monomer ratio [4] was 2.82 and the stoichiometry N [5] was 3 and 2. It also gave a trimer/monomer ratio [5] of 0.71 and a stoichiometry N [6] of 2.
